Assay results reported in the supplement of paper PMC9112550, “Optimization of the antimicrobial peptide Bac7 by deep mutational scanning” (BMC Biology, 2022).

Each sequence was assayed on Escherichia coli TOP10 (assay: shrunken log2 fold change of peptide-encoding DNA abundance (4.5 h post-induction vs induction); higher = less antimicrobial activity (less host growth inhibition)). Conditions: time post-induction: 4.5 h; library: site-saturation at positions 5, 18, 19, 20.
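Also: peptides expressed intracellularly from a pBAD plasmid library in pooled LB shake-flask culture, induced with 0.3% L-arabinose, DNA abundance read by NGS, three biological replicates, DESeq2 with apeglm shrinkage.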

| Sequence | shrunken log2 fold change |
| --- | --- |
| RRIRQRPPRLPRPRPRPTDFPRP | -0.122 |
| RRIRNRPPRLPRPRPRPTAPPRP | 0.517 |
| RRIRCRPPRLPRPRPRPIDRPRP | -0.0643 |
| RRIRNRPPRLPRPRPRPDHIPRP | 0.00647 |
| RRIRERPPRLPRPRPRPEAEPRP | 0.315 |
| RRIRYRPPRLPRPRPRPTQFPRP | -0.558 |
| RRIRVRPPRLPRPRPRPDFCPRP | 0.183 |
| RRIRERPPRLPRPRPRPMHQPRP | -0.452 |
| RRIRYRPPRLPRPRPRPMWRPRP | -0.27 |
| RRIRSRPPRLPRPRPRPWTRPRP | 0.0569 |
| RRIRTRPPRLPRPRPRPTDVPRP | 0.284 |
| RRIRKRPPRLPRPRPRPNTWPRP | 0.0309 |
| RRIRDRPPRLPRPRPRPVENPRP | -0.127 |
| RRIRQRPPRLPRPRPRPFNHPRP | 0.0419 |
| RRIRNRPPRLPRPRPRPGQFPRP | -0.0134 |
| RRIRQRPPRLPRPRPRPTEIPRP | -0.223 |
| RRIRRRPPRLPRPRPRPSTMPRP | -0.467 |
| RRIRMRPPRLPRPRPRPTASPRP | 1 |
| RRIRPRPPRLPRPRPRPWTHPRP | -0.0188 |
| RRIRRRPPRLPRPRPRPALFPRP | 0.128 |
| RRIRDRPPRLPRPRPRPQIKPRP | 0.0877 |
| RRIRGRPPRLPRPRPRPSYKPRP | -0.197 |
| RRIRDRPPRLPRPRPRPAQVPRP | -0.286 |
| RRIRARPPRLPRPRPRPTSCPRP | -0.15 |
| RRIRDRPPRLPRPRPRPILSPRP | -0.216 |

| Sequence | shrunken log2 fold change |
| --- | --- |
| RRIRKRPPRLPRPRPRPHTWPRP | 0.0484 |
| RRIRKRPPRLPRPRPRPTQWPRP | 0.622 |
| RRIRYRPPRLPRPRPRPAWLPRP | -0.0755 |
| RRIRFRPPRLPRPRPRPKAQPRP | -0.0881 |
| RRIRERPPRLPRPRPRPVIWPRP | 0.254 |
| RRIRDRPPRLPRPRPRPKKEPRP | 0.0609 |
| RRIRYRPPRLPRPRPRPVMVPRP | -0.139 |
| RRIRRRPPRLPRPRPRPVCVPRP | 0.359 |
| RRIRCRPPRLPRPRPRPTWGPRP | 0.301 |
| RRIRRRPPRLPRPRPRPTSEPRP | 0.372 |
| RRIRERPPRLPRPRPRPQLDPRP | 0.115 |
| RRIRMRPPRLPRPRPRPGTRPRP | 0.675 |
| RRIRPRPPRLPRPRPRPNKFPRP | -0.173 |
| RRIRPRPPRLPRPRPRPRMIPRP | 0.0799 |
| RRIRWRPPRLPRPRPRPALIPRP | 0.0212 |
| RRIRLRPPRLPRPRPRPGFQPRP | -0.0314 |
| RRIRIRPPRLPRPRPRPKVFPRP | 0.0502 |
| RRIRARPPRLPRPRPRPLPWPRP | 0.51 |
| RRIRGRPPRLPRPRPRPTDTPRP | 0.656 |
| RRIRPRPPRLPRPRPRPQIHPRP | -0.536 |
| RRIRRRPPRLPRPRPRPAYTPRP | -0.0735 |
| RRIRNRPPRLPRPRPRPEVSPRP | -0.0183 |
| RRIRPRPPRLPRPRPRPIFIPRP | -0.389 |
| RRIRERPPRLPRPRPRPRWGPRP | 0.239 |
| RRIRWRPPRLPRPRPRPVGMPRP | 0.456 |

| Sequence | shrunken log2 fold change |
| --- | --- |
| RRIRGRPPRLPRPRPRPEFLPRP | 1.01 |
| RRIRERPPRLPRPRPRPGDNPRP | -0.0779 |
| RRIRNRPPRLPRPRPRPRWHPRP | -0.114 |
| RRIRDRPPRLPRPRPRPGHYPRP | 0.0149 |
| RRIRYRPPRLPRPRPRPWSSPRP | 0.0132 |
| RRIRPRPPRLPRPRPRPQEKPRP | -0.0282 |
| RRIRVRPPRLPRPRPRPMYLPRP | -0.0313 |
| RRIRLRPPRLPRPRPRPMRCPRP | 0.0565 |
| RRIRSRPPRLPRPRPRPEKIPRP | -0.0469 |
| RRIRPRPPRLPRPRPRPATRPRP | 0.442 |
| RRIRHRPPRLPRPRPRPKAFPRP | 0.0173 |
| RRIRQRPPRLPRPRPRPIAHPRP | -0.148 |
| RRIRNRPPRLPRPRPRPYSWPRP | -0.814 |
| RRIRLRPPRLPRPRPRPREQPRP | 0.134 |
| RRIRERPPRLPRPRPRPKCAPRP | 0.0581 |
| RRIRNRPPRLPRPRPRPKWVPRP | 0.132 |
| RRIRNRPPRLPRPRPRPTIEPRP | 0.0325 |
| RRIRKRPPRLPRPRPRPNQNPRP | 1.18 |
| RRIRCRPPRLPRPRPRPHRDPRP | -0.3 |
| RRIRWRPPRLPRPRPRPWHPPRP | 0.0551 |
| RRIRERPPRLPRPRPRPFCIPRP | -0.346 |
| RRIRHRPPRLPRPRPRPYYVPRP | -0.0196 |
| RRIRDRPPRLPRPRPRPHQSPRP | 0.0679 |
| RRIRMRPPRLPRPRPRPVGPPRP | 0.67 |
| RRIRMRPPRLPRPRPRPNSCPRP | -0.0381 |
